Results from PMC5148612.

Experiments:
[1] = molecular target: Atg5 K57E,N84E-TAP (S. cerevisiae) (UniProt Q12380); assay: co-IP; as a14 but with plasmid Atg16 E102A instead of Atg16 wild type (Figure 5F)
[2] = molecular target: Atg5 K57E,N84E-TAP (S. cerevisiae) (UniProt Q12380); assay: co-IP; lysates of atg16∆ atg19∆ S. cerevisiae with integrated Atg5-TAP or Atg5 K57E,N84E-TAP, plasmid 6xmyc-Atg19 and plasmid Atg16 wild type; IgG beads (Figure 5F)

Chain of Atg5 K57E,N84E-TAP (S. cerevisiae) (Q12380 whole entry K57E/N84E): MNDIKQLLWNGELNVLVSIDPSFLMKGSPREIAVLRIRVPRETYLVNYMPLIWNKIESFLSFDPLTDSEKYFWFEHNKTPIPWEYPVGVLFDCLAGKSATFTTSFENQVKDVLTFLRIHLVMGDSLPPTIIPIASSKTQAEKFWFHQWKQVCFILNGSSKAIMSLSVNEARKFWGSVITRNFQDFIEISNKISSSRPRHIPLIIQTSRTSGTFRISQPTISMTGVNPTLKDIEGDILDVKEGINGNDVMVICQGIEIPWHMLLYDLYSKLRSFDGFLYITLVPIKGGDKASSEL

6xmyc-Atg19 pulled down, percent of the sample with wild type Atg5 and Atg16 [1]: 2.9%
6xmyc-Atg19 pulled down, percent of the sample with wild type Atg5 and Atg16 [2]: 13%
Substance: 6xmyc-Atg19 (from UniProt P35193 1-415) (natural protein)
